The target in the experiment is SARS-CoV-2 Wuhan spike receptor-binding domain (RBD), His-tagged (SARS-CoV-2) (UniProt P0DTC2). As to the kind of experiment: ELISA.

The values below come from PMC11594380.

The substance “WTL_3H, wild-type-like tri-helical ACE2 fragment (from UniProt Q9BYF1 18-805) (domain or fragment)” came in with an EC50 of 253 nM and a Kd of 192 nM.
